# In paper PMC10566545:
# Target: RNAP containing His-RpoA (wild type) (Pseudomonas aeruginosa PAO1) (UniProt O52760+Q51561+Q9HWC9+Q9HTM1)
# Experiment: EMSA
# Conditions: 10 mM Tris-HCl, 50 mM KCl, 1 mM DTT, 1% glycerin, 10 mM MgCl2, 1 ug/ul poly(dI-dC), pH 7.5, room temperature, 30 min; 30 ng probe, 0.2 ug protein
# Sequence of RNAP containing His-RpoA (wild type) (Pseudomonas aeruginosa PAO1) (O52760 whole entry, chain 1 of 4): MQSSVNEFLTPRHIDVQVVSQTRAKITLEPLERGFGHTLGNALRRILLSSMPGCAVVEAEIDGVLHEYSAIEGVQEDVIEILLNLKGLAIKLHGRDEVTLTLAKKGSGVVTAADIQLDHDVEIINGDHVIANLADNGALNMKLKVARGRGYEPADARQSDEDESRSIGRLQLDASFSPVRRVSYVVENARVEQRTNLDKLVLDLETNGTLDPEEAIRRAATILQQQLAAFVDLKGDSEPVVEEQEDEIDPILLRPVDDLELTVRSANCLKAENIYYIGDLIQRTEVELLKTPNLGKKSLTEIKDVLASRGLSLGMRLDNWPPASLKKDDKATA
# Sequence of RNAP containing His-RpoA (wild type) (Pseudomonas aeruginosa PAO1) (Q51561 whole entry, chain 2 of 4): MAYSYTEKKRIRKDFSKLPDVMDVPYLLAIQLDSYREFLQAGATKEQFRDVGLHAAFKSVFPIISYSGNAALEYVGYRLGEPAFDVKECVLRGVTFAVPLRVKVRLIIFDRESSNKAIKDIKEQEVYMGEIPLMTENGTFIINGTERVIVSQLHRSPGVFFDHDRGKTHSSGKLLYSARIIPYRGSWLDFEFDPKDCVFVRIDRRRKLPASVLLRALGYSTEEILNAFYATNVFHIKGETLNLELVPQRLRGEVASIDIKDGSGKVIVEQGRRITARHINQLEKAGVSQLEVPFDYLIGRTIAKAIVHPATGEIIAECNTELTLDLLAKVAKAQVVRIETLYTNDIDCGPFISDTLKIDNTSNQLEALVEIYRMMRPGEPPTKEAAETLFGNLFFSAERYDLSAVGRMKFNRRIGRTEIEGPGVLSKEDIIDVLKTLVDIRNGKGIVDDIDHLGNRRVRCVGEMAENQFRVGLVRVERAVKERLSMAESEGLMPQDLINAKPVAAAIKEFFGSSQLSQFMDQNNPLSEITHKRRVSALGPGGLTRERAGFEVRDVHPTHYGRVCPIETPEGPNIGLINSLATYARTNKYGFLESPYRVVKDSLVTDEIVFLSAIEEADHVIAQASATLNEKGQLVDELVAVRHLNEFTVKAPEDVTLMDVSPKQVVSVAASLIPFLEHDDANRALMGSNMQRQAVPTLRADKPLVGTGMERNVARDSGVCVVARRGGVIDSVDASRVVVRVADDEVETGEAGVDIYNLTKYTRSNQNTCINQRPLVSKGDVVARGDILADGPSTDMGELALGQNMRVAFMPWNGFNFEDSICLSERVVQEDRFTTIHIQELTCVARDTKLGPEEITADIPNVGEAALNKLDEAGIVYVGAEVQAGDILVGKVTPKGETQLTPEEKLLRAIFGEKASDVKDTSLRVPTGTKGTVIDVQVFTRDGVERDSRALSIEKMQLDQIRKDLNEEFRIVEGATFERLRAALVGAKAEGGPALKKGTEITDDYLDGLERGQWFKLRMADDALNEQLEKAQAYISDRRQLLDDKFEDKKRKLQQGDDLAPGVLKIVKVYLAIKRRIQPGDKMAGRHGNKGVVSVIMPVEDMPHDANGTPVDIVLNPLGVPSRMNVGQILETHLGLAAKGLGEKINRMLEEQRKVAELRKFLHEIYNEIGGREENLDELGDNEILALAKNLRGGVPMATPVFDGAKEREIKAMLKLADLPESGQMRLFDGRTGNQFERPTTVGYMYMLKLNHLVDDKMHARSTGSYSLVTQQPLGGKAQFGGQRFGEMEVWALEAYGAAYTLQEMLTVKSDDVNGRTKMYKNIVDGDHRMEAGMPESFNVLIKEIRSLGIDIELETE
# Sequence of RNAP containing His-RpoA (wild type) (Pseudomonas aeruginosa PAO1) (Q9HWC9 whole entry, chain 3 of 4): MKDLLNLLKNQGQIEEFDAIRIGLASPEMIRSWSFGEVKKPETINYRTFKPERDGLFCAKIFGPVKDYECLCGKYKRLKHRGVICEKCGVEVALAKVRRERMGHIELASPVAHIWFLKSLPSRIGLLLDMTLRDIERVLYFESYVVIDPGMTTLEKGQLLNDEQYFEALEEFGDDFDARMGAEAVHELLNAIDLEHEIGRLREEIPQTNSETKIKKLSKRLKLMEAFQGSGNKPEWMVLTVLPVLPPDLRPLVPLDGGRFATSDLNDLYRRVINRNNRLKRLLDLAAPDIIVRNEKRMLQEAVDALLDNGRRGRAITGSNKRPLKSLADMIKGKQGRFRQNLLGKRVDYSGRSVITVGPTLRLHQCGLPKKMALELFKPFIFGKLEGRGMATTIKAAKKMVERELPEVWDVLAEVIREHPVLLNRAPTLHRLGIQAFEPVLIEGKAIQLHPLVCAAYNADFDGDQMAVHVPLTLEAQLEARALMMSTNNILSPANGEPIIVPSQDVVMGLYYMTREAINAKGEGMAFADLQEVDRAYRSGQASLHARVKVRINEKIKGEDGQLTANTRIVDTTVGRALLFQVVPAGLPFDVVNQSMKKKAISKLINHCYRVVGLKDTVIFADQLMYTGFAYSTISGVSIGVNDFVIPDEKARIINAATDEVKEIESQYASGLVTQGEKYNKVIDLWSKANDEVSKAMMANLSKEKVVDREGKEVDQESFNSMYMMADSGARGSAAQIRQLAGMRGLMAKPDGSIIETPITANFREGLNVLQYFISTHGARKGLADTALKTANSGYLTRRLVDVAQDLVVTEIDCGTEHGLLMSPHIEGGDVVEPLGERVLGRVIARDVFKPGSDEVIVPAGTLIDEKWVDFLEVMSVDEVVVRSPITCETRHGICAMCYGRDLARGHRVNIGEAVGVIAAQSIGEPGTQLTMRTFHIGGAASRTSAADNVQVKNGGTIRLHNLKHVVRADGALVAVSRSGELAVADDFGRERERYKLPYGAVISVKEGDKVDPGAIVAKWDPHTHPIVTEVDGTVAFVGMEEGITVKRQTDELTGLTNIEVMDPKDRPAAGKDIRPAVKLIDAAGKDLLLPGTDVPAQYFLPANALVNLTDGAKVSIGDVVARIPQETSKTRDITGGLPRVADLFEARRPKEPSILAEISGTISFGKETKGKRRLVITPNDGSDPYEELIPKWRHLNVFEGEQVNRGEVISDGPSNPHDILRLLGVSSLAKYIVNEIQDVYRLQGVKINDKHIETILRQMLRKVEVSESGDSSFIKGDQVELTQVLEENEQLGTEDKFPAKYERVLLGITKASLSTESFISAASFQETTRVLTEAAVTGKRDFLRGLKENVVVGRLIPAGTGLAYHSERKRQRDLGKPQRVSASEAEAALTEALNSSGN
# Sequence of RNAP containing His-RpoA (wild type) (Pseudomonas aeruginosa PAO1) (Q9HTM1 whole entry, chain 4 of 4): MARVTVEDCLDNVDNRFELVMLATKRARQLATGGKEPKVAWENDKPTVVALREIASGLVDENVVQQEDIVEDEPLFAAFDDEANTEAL
sequence,measurement,value
AGTCTCTGAGCCCTCCGGCAGCTACCCGCACGAGGCGTCGCAACGGGAAAATCGATCGCGCGCCGCGGGTGTGCGGCTTATTCCATCGAAAGCACTGTCCATAACCATCGACTGTTACAGAAAACGAAAAACCATGTATCACTGTTCGTGATAATCAAAATCTCGTCGTTCGATTAGTTCCCTGCCGGAGCAGCCCGCAGACTTCGCCAATCCCGAAAAACCGACTGGCGGAGTCAAGCATGGTTTTTT (double strand) [PmexE probe (mexEF-oprN promoter)],binding,binds
